Two substances from paper PMC12728192, “The dynamic lateral gate of the mitochondrial β-barrel biogenesis machinery is blocked by darobactin A” (Nature Communications, 2025) can be followed below.

Several values for one entry are separate records, joined by “and”; a condition that tells them apart may be missing. Equal entries are not always repeated. Where two headings read alike, the source gives them in different places.

Assay [1] addresses Thermothelomyces thermophilus SAM complex (10xHis-TEV-Sam50, Sam35 (no tag), TwinStrep-TEV-GG-Sam37) (Thermothelomyces thermophilus). In words: MST; SAM complex labelled with Monolith RED-tris-NTA 2nd Generation, constant at 25 nM; serial dilution of peptide; size-exclusion buffer (20 mM HEPES pH 8.0, 150 mM NaCl, 0.02% GDN); Monolith NT.115, premium capillaries; MO.Affinity Analysis; one Kd for each biological replicate from 2-3 technical replicates. (In general: SEC sorts molecules by how far they enter the pores of the column.)

For assay [2], the target named is Thermothelomyces thermophilus SAM complex (sorting and assembly machinery complex; Sam50:Sam35:Sam37, monomer) (Thermothelomyces thermophilus). In words: MST; SAM complex labelled with Monolith RED-tris-NTA 2nd Generation, constant at 25 nM; serial dilution of peptide; size exclusion buffer (20 mM HEPES pH 8.0, 150 mM NaCl, 0.02% GDN); Monolith NT.115, premium capillaries.

As to darobactin A (peptide), the Kd in assay [1] (mean of biological replicates) was 0.228 µM; in assay [2] it was 0.296 µM and 0.0956 to 0.377 µM.

For the substance linear darobactin (peptide), the figures for the Kd in assay [1] and in assay [2] were above 1170 µM and 490 to 1200 µM, respectively.

The term Kd denotes the free concentration of one partner at which half of the binding sites on the other are occupied at equilibrium, for simple one-to-one binding.
